Laboratory results taken from patent publication US20050042624A1, “Tumor antigen” (Kyogo ITOH, priority 2001, published 2005).

Test system: OK-CTLd
Test: IFN-γ production from OK-CTLd against COS-7 cells co-transfected with cDNA clone and HLA-A0207 (ELISA)
Format: cell-based, human
Description: Cryopreserved OK-CTLd was cultured in the presence of 100 U/ml of IL-2 for 2 weeks or more to use in the experiments.
A cDNA library of SW620 cells was pooled so that each pool contained 100 clones, and 200 ng of the cDNA pooled in each well and 200 ng of the HLA-A0207 cDNA were mixed in 100 ul of lipofectoamine (Invitrogen Corp.)/Opti-MEM (Invitrogen Corp.) 1:200 mixture for 30 min. 50 μl of the obtained mixture was added to a simian kidney cell line COS-7 (1×10^4), and incubated for 6 h for co-transduction. Then, RPMI-1640 culture medium containing 10% FCS was added to and culturing was carried out for 2 days, followed by addition of OK-CTLd (2×10^5) to each well. After a further 18 h incubation, 100 μl of the supernatant was collected, and IFN-γ production was measured by ELISA. In this case, as a negative control, using COS-7 cells into which the gene had not been transfected as a target, IFN-γ production from OK-CTLd was examined and the value of IFN-γ produced was subtracted as a background from that of each measurement.
A pool of cDNA library was screened with the criteria in which cDNA capable of enhancing IFN-γ production from OK-CTLd was judged as a positive one having CTL-activating ability. […]

B1: SW620-cl.48: cDNA clone from SW620 encoding SW620-48-PP (nucleic acid, listed as Homo sapiens)
DNA: CCTTTCCAAGGGAGTGGTTGTGTGATCGCCATCTTAGGGAAAAGATGTTCTCGTCCGTGGCGCACCTGGCGCGGGCGAACCCCTTCAACACGCCACATCTGCAGCTGGTGCACGATGGTCTCGGGGACCTCCGCAGCAGCTCCCCAGGGCCCACGGGCCAGCCCCGCCGCCCTCGCAACCTGGCAGCCGCCGCCGTGGAAGAGTACAGTTGTGAATTTGGCTCCGCGAAGTATTATGCACTGTGTGGCTTTGGTGGGGTCTTAAGTTGTGGTCTGACACACACTGCTGTGGTTCCCCTGGATTTAGTGAAATGCCGTATGCAGGTGGACCCCCAAAAGTACAAGGGCATATTTAACGGATTCTCAGTTACACTTAAAGAGGATGGTGTTCGTGGTTTGGCTAAAGGATGGGCTCCGACTTTCCTTGGCTACTCCATGCAGGGACTCTGCAAGTTTGGCTTTTATGAAGTCTTTAAAGTCTTGTATAGCAATATGCTTGGAGAGGAGAATACTTATCTCTGGCGCACATCACTATATTTGGCTGCCTCTGCCAGTGCTGAATTCTTTGCTGACATTGCCCTGGCTCCTATGGAAGCTGCTAAGGTTCGAATTCAAACCCAGCCAGGTTATGCCAACACTTTGAGGGATGCAGCTCCCAAAATGTATAAGGAAGAAGGCCTAAAAGCATTCTACAAGGGGGTTGCTCCTCTCTGGATGAGACAGATACCATACACCATGATGAAGTTCGCCTGCTTTGAACGTACTGTTGAAGCACTGTACAAGTTTGTGGTTCCTAAGCCCCGCAGTGAATGTTCAAAGCCAGAGCAGCTGGTTGTAACATTTGTAGCAGGTTACATAGCTGGAGTCTTTTGTGCAATTGTTTCTCACCCTGCTGATTCTGTGGTATCTGTGTTGAATAAAGAAAAAGGTAGCAGTGCTTCTCTGGTCCTCAAGAGACTTGGATTTAAAGGTGTATGGAAGGGACTGTTTGCCCGTATCATCATGATTGGTACCCTGACTGCACTACAGTGGTTTATCTATGACTCCGTGAAGGTCTACTTCAGACTTCCTCGCCCTCCTCCACCCGAGATGCCAGAGTCTCTGAAGAAGAAGCTTGGGTTAACTCAGTAGTTAGATCAAAGCAAATGTGGACTGAATCTGCTTGTTGATCAGTGTTGAAGAAAGTGCAAAAGGAACTTTTATATATTTGACAGTGTAGGAAATTGTCTATTCCTGATATAATTACTGTAGTACTCTTGCTTAAGGCAAGAGTTTCAGATTTACTGTTGAAATAAACCCAACTCTTCATGAAAAAAAAAAAAAAA
  recognition of cDNA clone by OK-CTLd, enhancement of IFN-γ production: recognized by OK-CTLd in an HLA-A2-restricted manner and in a dose dependent manner of plasmid
